This assay has as its target T1, Chk1 kinase (Homo sapiens, UniProt O14757).
T1 construct: 2 (KH289); made in house; host or cells: baculovirus (Bac-to-Bac, pFastBac-Nde) in Hi-5 insect cells
T1 sequence (O14757 1-289): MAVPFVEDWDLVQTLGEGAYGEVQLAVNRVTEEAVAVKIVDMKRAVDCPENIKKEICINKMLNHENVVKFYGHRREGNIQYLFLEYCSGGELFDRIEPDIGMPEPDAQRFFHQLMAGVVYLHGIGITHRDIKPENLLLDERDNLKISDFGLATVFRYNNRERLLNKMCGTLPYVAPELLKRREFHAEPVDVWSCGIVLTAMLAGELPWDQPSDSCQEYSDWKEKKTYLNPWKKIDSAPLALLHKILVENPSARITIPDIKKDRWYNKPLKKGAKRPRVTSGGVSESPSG
As to the kind of experiment: Peptide substrates tested for activity as Chk1 substrates. Format: biochemical. As to conditions: Syntide 2 = 100%. On the procedure:
The enzymatic activity of a kinase is measured by its ability to catalyze the transfer of a phosphate residue from a nucleoside triphosphate to an amino acid side chain in a selected protein target. The conversion of ATP to ADP generally accompanies the catalytic reaction. Herein, a synthetic substrate peptide, Syntide-2, having amino acid sequence PLARTLSVAGLPGKK (SEQ ID NO. 11) was utilized. The production of ADP from ATP that accompanies phosphoryl transfer to the substrate was coupled to oxidation of NADH using phosphoenolpyruvate (PEP) through the actions of pyruvate kinase (PK) and lactic dehydrogenase (LDH). The oxidation of NADH was monitored by following the decrease of absorbance at 340 nm (e340=6.22 cm−1 mM−1) using a HP8452 spectrophotometer. Typical reaction solutions contained: 4 mM PEP, 0.15 mM NADH, 28 units of LDH/mL, 16 units of PK/mL, 3 mM DTT, 0.125 mM Syntide-2, 0.15 mM ATP and 25 mM MgCl2 in 50 mM TRIS pH 7.5; 400 mM NaCl. Assays were initiated with 10 nM of kinase domain of Chk1, KH289. Ki values were determined by measuring initial enzyme activity in the presence of varying concentrations of inhibitors. The data were analyzed using Enzyme Kinetic and Kaleidagraph software.
The following substrates were tested for peptide content and activity:
As described in detail below, an aspect of the invention involves a nonradioactive ELISA based assay suitable for high throughput screening (HTS). The development of the ELISA based CHK1 kinase HTS assay was first initiated with a monoclonal anti-phosphoserine antibody called Clone PSR-45, supplied by Sigma. New Chk peptide substrates, analogues of Syntide2, were synthesized to validate this assay. Biotin-Syntide-2 (SEQ ID NO. 12), and N-terminus acetylated Syntide-2 (SEQ ID NO. 13) and the expected peptide products after CHK phosphorylation, serine phosphorylated Syntide 2 (SEQ ID NO. 15), and serine phosphorylated biotin-Syntide 2 (SEQ ID NO. 16) were synthesized for assay development. […]

We go through three substances from patent publication US6670167B1, “Catalytic domain of the human effector cell cycle checkpoint protein kinase materials and methods for identification of inhibitors thereof” (Agouron Pharmaceuticals, Inc., priority 1999, dated 2003).

Where no end group is shown, it is not given here.

In the case of “Ac-PLARTLSVAGLPG-AGAGAGAK (Ac-PLARTLSVAGLPGAGAGAGAK) [Syntide 4, N-terminus acetylated analogue of Syntide 2]”, the “Activity (peptide substrate)” value is given as 72%. For “KAGAG-PLARTLSVAGLPG-Biotin-K [Syntide 3]”, the “Activity (peptide substrate)” value is listed as 67%. As to “PLARTLSVAGLPGKK [Syntide 2, synthetic substrate peptide, reference compound]”, the “Activity (peptide substrate)” value was determined as 100%.
